Target: hAgo2 (Homo sapiens), Q9UKV8
Experiment: cleavage activity titration
Details: siRNA-bound hAgo2; remark: other sources report otherwise

hAgo2 (Homo sapiens), Q9UKV8, sequence (Q9UKV8 whole entry): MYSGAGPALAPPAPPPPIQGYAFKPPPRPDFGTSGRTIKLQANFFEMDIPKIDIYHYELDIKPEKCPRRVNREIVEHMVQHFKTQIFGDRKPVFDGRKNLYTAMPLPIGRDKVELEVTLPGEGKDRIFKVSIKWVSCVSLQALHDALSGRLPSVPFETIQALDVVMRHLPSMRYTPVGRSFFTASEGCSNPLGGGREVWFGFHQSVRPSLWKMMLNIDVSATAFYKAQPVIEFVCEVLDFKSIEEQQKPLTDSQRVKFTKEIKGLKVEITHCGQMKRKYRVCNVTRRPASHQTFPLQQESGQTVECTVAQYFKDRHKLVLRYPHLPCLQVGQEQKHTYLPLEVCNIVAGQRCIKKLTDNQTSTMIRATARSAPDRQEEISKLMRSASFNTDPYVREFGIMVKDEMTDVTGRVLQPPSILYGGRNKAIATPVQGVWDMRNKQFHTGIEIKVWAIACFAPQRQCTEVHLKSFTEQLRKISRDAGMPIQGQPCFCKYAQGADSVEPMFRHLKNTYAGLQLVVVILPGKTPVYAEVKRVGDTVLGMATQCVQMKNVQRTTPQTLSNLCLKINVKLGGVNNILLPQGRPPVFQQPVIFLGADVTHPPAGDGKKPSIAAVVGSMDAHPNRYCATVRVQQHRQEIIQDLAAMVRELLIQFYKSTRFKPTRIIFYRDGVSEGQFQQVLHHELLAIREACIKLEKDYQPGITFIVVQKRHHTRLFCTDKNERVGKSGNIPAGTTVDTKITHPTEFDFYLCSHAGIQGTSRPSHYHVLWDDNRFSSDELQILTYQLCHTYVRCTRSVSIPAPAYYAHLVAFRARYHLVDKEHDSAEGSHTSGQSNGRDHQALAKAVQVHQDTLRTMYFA

Kd: 2 µM
B1: hTRBP, Q15633 (protein)
chain: MSEEEQGSGTTTGCGLPSIEQMLAANPGKTPISLLQEYGTRIGKTPVYDLLKAEGQAHQPNFTFRVTVGDTSCTGQGPSKKAAKHKAAEVALKHLKGGSMLEPALEDSSSFSPLDSSLPEDIPVFTAAAAATPVPSVVLTRSPPMELQPPVSPQQSECNPVGALQELVVQKGWRLPEYTVTQESGPAHRKEFTMTCRVERFIEIGSGTSKKLAKRNAAAKMLLRVHTVPLDARDGNEVEPDDDHFSIGVGSRLDGLRNRGPGCTWDSLRNSVGEKILSLRSCSLGSLGALGPACCRVLSELSEEQAFHVSYLDIEELSLSGLCQCLVELSTQPATVCHGSATTREAARGEAARRALQYLKIMAGSK
